Assay results reported in patent US20210292393A1 (published 2021).

Key:
[1] = molecular target: T1, SARS-CoV-2 full length spike protein (wild-type), conjugated to optically encoded beads (SARS-CoV-2, UniProt P0DTC2 14-1208); test: multiplexed bead flow cytometry, column D
T1 construct: also called SARS-CoV-2 spike (S) protein; full-length trimeric SARS-CoV-2 spike protein

[2] = molecular target: T2, SARS-CoV-2 full length spike protein (wild type) (SARS-CoV-2, UniProt P0DTC2 14-1273); test: flow cytometry, CHO cells expressing full-length wild-type SARS-CoV-2 spike
T2 construct: also called SARS-CoV-2 spike; S protein

[3] = molecular target: T3, SARS-CoV-2 full length spike protein, wild type, expressed on the surface of transiently transfected CHO cells (SARS-CoV-2, UniProt P0DTC2 14-1273); test: flow cytometry, CHO cells expressing full-length WT spike
T3 construct: also called SARS-CoV-2 spike (S) protein; Wild-Type SARS-CoV-2

[4] = molecular target: T2, SARS-CoV-2 full length spike protein …
[5] = molecular target: SARS-CoV-2 spike protein on infectious SARS-CoV-2 virus, Italy-INMI1 isolate (SARS-CoV-2, UniProt P0DTC2 14-1273); test: cell-based or functional assay
[6] = molecular target: T4, SARS-CoV-2 full length spike protein (wild type) (SARS-CoV-2, UniProt P0DTC2 14-1208); test: multiplexed bead assay, flow cytometry; columns A, B, D, G, H, I
T4 construct: also called SARS-CoV-2 spike; S protein

[7] = molecular target: T5, SARS-CoV-2 spike (S) protein, full length, wild type (SARS-CoV-2, UniProt P0DTC2 14-1208); test: multiplexed bead assay, flow cytometry
T5 construct: also called SARS-CoV-2 full length spike; full-length trimeric SARS-CoV-2 spike protein

B1: antibody 541 (antibody, V domains shown)
VH: QVQLVQSGAEVKKPGASVKVSCKASGYTFTSYYVHWVRQAPGQSLEWMGVISPSTGSTTYAQNFQGRVTMTRDTSTTTVYMELSSLRSEDTAVYYCARDDYYDSTRYFDLWGRGTLVTVSS
VL: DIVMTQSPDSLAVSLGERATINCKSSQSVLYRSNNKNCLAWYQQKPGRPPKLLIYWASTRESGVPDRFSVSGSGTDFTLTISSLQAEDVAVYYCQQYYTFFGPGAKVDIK
binding result [1]: no binding

B2: antibody 290 (antibody, V domains shown)
VH: QVHLVQSGAEVKKPGASVKVSCAASGYTFNNYGVSWVRQAPGQGLEWMGWISASNGNTKYAQNLQGRVTMTTDTSTSTAYMELRSLRSDDTAVYYCARDLVGPTAPNYYYGMDVWGQGTAVTVSS
VL: QSVLTQPPSVSGAPGQRVTISCTGSSSSIGAGYDVHWYQQLPGTAPKLLIYANSNRPSGVPDRLSGSKSGTSASLAITGLQAEDEADYYCQSYDSSLSGYVFGTGTKVTVL
binding result [2]: no binding

B3: antibody 514 (antibody, V domains shown)
VH: EVQLVQSGAEVKKPGATVKISCKVSGYTFTDYYMHWVQQAPGKGLEWMGLVDPEDGETIYAEKFQGRVTITADTSTDTAYMELSSLRSEDTAVYYCATDCKYDILTGHYSAGYYYYGMDVWGQGTTVTVSS
VL: DIQMTQSPSSLSASVGDRVTITCRASQGISNYLAWFQQKPGKAPKSLIYAASSLQSGVPSKFSGSGSGTDFTLTISSLQPEDFATYYCQQYNSYPFTFGGGTKVEIK
binding result [1]: no binding

B4: antibody 432 (antibody, V domains shown)
VH: QVQLQESGPGLVKPSQTLSLTCTVSGGSISSGGYYWNWIRQHPGKGLEWIGYIYDSGSTYYNPSLKSRLTLSIDTSQNQFSLRRTSVTAADTAVYYCARGRQYDYDRTGLQYYFDYWGQGTLVTVSS
VL: EIVLTQSPGTLSLSPGERATLSCRASQSFSSSYLAWYQQKPGQAPRLLIYGASSRATGIPDRFSGSGSGTDFTLTISRLEPEDFAVYYCQQYGTSSLTFGGGTKVEIK
binding result [3]: no binding

B5: antibody 296 (antibody, V domains shown)
VH: EVQLVESGGGLVQPGGSLRLSCAGSGFTLSNYWMTWVRQAPGKGLEWVANINQDASRKYYGDSVKGRFSVSRDNAKNSLYLQMNSLTAEDTGFYYCVREELPSTPGSTWGQGTLVTVSS
VL: QSALTQPASVSGSPGQSITISCTGTSSDIGGYNHVSWYQQHPGKAPKLMIYGVSNRPSGVSDRFSGSKSDNTASLTISGLQAEDEADYYCSSPTSRGNKVFGTGTKVTVL
median fluorescence intensity, fold over isotype control [4]: 1.12 fold over isotype
binding result [2]: no binding

B6: antibody 510 (antibody, V domains shown)
VH: QVQLQESGPGLVKPSQTLSLTCTVSGGSISSGSYYWSWIRQPAGKGLEWIGRIYTSGSTNYNPSLKSRVTISVDTSKNQFSLKLSSVTAADTAVYYCAREGQWLYRFDYWGQGTLVTVSS
VL: QSALTQPASVSGSPGQSITISCTGTSSDVGNYDLVSWYQQHPGKAPKLVIYGVTKRPSGVSNRFSGSKSGNTASLTISGLQAEDEADYYCCSYATGDTSVFGTGTKVTVL
binding result [1]: no binding

B7: mAb 555 (antibody, V domains shown)
VH: QVQLVQSGAEVKKPGSSVKVSCKASGGTFSNYAISWVRQAPGQGLEWMGRIIPILGIANYAQKFQGRVTITADKSTSTAYMELSSLRSEDTAVYYCARGYYEARHYYYYYAMDVWGQGTAVTVSS
VL: not shown
IC50, live virus neutralization of Italy-INMI1 isolate; Lab 2, plaque reduction [5]: 0.05 µg/mL

B8: antibody 341 (antibody, V domains shown)
VH: QLQLQESGPGLVKPSETLSLTCTVSGGSISSSSYYWGWIRQPPGKGLEWIGSIYYSGSTYYNPSLKSRVTISVDTSKNQFSLKLSSVTAADTAVYYCARRPLRYFDWLTNFDYWGQGTLVTVSS
VL: EIVLTQSPATLSLSPGERATLSCRASQSVSSYLAWYQQKPGQAPRLLIYDASNRATGIPARFSGSGSGTDFTLTISSLEPEDFAVYYCQQRSNWPITFGQGTRLEIK
binding result [6]: no binding

B9: anti-SARS-CoV-2 antibody 474 (antibody, V domains shown)
VH: EVQLVESGGGLVQPGGSLRLSCAASGFTFSSYWMHWVRQAPGKGLVWVSRINSDGSSTSYADSVKGRFTISRDNAKNTLYRQMNSLRAEDTAVYYCALGPLDIVGSYYYYGMDVWGQGTTVTVSS
VL: NFMLTQPHSVSESPGKTVTISCTGSSGSIASNYVQWYQQRPGSAPTTVIYEDNQRPSGVPDRFSGSIDSSSNSASLTISGLKTEDEADYYCQSYDSSNQDVVFGGGTKLTVL
binding result [7]: no binding
